Results: publication PMC12952242

Experiments:
[1] = test system: ZNF207 full-length K42E; experiment: EMSA
[2] = test system: ZNF207 full-length WT; experiment: EMSA

Substance: U1 snRNA
- Kd [1]: 0.0604 µM
- Kd [2]: 0.0487 µM
